Results reported in US20120207770A1 (NANYANG TECHNOLOGICAL UNIVERSITY, published 2012).

Legend:
[1] = target: T1, human integrin β5 (enriched membrane protein extract of transfected HEK293T cells) (human, UniProt P18084 24-799, limits assumed); assay: SPR, integrin over immobilized ANGPTL4, global fit to Langmuir 1:1 model
T1 construct: Membrane extract enriched on a sucrose step gradient before SPR; also called integrins B5; integrin 5
Experimental: Purifided fibrinogen-like fragment of ANGPTL4 (cANGPTL4) was immobilized onto ProteOn GLC chip by amine coupling as recommended by the manufacturer (Bio-Rad). Different concentrations of integrins were introduced into the GLC chip at a flow rate of 25 μl/min for […] with running buffer (50 mM Tris, pH8.0, 100 mMNaC1). […] Global fitting of the data to a Languir 1:1 model was used to determine the association (Kₒₙ) dissociation (Koff) and affinity constant (KD) using scrubber2 (Biologic Software Pty Ltd). […] The affinity constants of the 6 mAbs for ANGPTL4 were determined using the one shot Kinetics protocol as described by manufacturer (Bio-Rad).
Purified fibrinogen-like fragment of ANGPTL4 (cANGPTL4) was immobilized onto ProteOn GLC chip by amine coupling, as recommended by the manufacturer (Bio-Rad). Different concentrations of integrins were introduced into the GLC chip at a flow rate of 25 μl/min for […] with running buffer (50 mM Tris, pH 8.0, 100 mM NaCl). […] Global fitting of the data to a Langmuir 1:1 model was used to determine the association (kₒₙ), dissociation (koff) and affinity constant (KD) using Scrubber2 (BioLogic Software Pte Ltd). […] The affinity constants of the 6 mAbs for ANGPTL4 were determined using the One-Shot Kinetics protocol as described by manufacturer (Bio-Rad).

[2] = target: T2, human integrin β1 (enriched membrane protein extract of transfected HEK293T cells) (human, UniProt P05556 21-798, limits assumed); assay: SPR, integrin over immobilized ANGPTL4 on a GLC chip, global fit to Langmuir 1:1 model
T2 construct: Membrane extract enriched on a sucrose step gradient before SPR; also called integrins B1
Experimental: Immunoprecipitates were probed with anti-Src for normalization. Activated Src, Na⁺/H⁻ exchanger 1 and catalase were assessed using cognate antibodies. Representative pictures from three experiments. (h) Intracellular ROS of A-5RT3CTRL and A-5RT3ANGPTL4 evaluated by 5-(and 6-)-chloromethyl-2′,7′-dichlorodihydro-fluorescein diacetate acetyl ester. Data are normalized to total protein content. (i) Activities of caspases in A-5RT3ANGPTL4 after 2 h suspension. Values (mean±S.D.) represent a fold change above A-5RT3CTRL (n=3). *:p<0.05, **:p<0.01.
Purifided fibrinogen-like fragment of ANGPTL4 (cANGPTL4) was immobilized onto ProteOn GLC chip by amine coupling as recommended by the manufacturer (Bio-Rad). Different concentrations of integrins were introduced into the GLC chip at a flow rate of 25 μl/min for […] with running buffer (50 mM Tris, pH8.0, 100 mMNaC1). […] The affinity constants of the 6 mAbs for ANGPTL4 were determined using the one shot Kinetics protocol as described by manufacturer (Bio-Rad).
Purified fibrinogen-like fragment of ANGPTL4 (cANGPTL4) was immobilized onto ProteOn GLC chip by amine coupling, as recommended by the manufacturer (Bio-Rad). […] The affinity constants of the 6 mAbs for ANGPTL4 were determined using the One-Shot Kinetics protocol as described by manufacturer (Bio-Rad).

T2 sequence (P05556 21-798 limits assumed): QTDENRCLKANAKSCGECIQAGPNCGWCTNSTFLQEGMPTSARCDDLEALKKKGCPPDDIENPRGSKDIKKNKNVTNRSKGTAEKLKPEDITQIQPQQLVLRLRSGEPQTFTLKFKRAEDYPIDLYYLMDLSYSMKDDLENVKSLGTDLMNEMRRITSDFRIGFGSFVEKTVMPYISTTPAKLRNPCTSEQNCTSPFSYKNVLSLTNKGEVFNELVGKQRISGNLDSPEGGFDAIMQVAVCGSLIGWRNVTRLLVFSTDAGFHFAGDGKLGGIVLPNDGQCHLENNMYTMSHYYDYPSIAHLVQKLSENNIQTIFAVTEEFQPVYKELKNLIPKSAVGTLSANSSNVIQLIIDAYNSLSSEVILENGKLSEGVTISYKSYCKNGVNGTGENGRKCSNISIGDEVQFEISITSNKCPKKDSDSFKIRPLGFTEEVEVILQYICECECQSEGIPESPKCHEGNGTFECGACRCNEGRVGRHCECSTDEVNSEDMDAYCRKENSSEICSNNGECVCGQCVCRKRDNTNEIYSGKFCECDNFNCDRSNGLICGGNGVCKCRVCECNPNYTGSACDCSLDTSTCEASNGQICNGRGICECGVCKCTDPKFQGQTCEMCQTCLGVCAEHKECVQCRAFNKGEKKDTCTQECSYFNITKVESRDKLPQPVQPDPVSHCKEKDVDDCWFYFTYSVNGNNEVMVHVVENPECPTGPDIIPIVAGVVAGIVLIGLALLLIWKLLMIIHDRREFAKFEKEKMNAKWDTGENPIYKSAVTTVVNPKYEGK
T1 sequence (P18084 24-799 limits assumed): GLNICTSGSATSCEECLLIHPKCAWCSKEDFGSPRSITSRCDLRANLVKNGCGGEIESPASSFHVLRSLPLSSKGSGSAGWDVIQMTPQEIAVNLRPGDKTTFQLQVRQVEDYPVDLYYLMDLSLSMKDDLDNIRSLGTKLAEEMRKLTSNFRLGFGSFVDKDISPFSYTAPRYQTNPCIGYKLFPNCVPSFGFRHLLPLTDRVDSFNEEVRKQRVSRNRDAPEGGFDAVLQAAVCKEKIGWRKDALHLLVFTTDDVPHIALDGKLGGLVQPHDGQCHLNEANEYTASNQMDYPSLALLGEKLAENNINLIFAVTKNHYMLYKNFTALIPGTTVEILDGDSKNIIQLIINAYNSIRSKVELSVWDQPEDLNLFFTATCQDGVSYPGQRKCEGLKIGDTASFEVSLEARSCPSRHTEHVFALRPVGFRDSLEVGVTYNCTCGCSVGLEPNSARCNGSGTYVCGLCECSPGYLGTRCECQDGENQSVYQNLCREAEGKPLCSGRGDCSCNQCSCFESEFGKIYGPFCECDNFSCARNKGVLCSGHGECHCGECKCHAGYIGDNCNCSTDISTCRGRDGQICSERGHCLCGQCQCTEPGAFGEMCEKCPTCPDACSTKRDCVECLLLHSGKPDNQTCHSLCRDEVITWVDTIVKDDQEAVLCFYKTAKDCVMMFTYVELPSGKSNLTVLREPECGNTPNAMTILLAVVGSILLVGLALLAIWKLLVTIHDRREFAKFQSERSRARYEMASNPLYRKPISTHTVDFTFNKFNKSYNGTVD

B1: recombinant C-terminal fibrinogen-like fragment of human ANGPTL4 (cANGPTL4, a.a. 186-406) (ligand, UniProt Q9BY76 186-406, looked up)
chain: RDCQELFQVGERQSGLFEIQPQGSPPFLVNCKMTSDGGWTVIQRRHDGSVDFNRPWEAYKAGFGDPHGEFWLGLEKVHSITGDRNSRLAVQLRDWDGNAELLQFSVHLGGEDTAYSLQLTAPVAGQLGATTVPPSGLSVPFSTWDQDHDLRRDKNCAKSLSGGWWFGTCSHSNLNGQYFRSIPQQRQKLKKGIFWKTWRGRYYPLQATTMLIQPMAAEAAS
notes: range 186-406; also called immobilized-ANGPTL4; fibrinogen-like fragment of ANGPTL4; not shown: N-terminal histidine tag
Kd [1]: ~0.1 µM
Kd [2]: ~0.1 µM
